Values belong to the binder of their own block, whether it stands above or below them. Numbered stars: 1 amine (or outer) side, 2 acyl side, 3 side chain; on linkers, the order of the positions; unused ones are H or OH. * marks the point of attachment. C18 diacid = O=C(O)CCCCCCCCCCCCCCCCC(=O)*; γGlu = O=C(O)[C@H](CCC(=O)[*:2])N[*:1]; C14 diacid = O=C(O)CCCCCCCCCCCCC(=O)*
Molecular target: T1, human amylin receptor (human calcitonin receptor + human RAMP3) (human) (UniProt P30988)
T1 sequence (looked up) 1: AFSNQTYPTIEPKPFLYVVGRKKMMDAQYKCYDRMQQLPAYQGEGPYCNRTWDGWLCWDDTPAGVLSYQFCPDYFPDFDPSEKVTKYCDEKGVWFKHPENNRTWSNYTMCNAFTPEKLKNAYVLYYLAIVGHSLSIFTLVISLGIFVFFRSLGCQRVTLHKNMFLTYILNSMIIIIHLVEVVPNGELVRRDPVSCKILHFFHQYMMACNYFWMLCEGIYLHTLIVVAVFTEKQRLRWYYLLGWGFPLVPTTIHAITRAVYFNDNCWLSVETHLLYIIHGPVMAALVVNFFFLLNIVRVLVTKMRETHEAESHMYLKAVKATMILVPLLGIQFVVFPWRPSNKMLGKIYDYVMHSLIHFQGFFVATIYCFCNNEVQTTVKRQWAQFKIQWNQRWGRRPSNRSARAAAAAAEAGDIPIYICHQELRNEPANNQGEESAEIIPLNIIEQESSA
T1 sequence (looked up) 2: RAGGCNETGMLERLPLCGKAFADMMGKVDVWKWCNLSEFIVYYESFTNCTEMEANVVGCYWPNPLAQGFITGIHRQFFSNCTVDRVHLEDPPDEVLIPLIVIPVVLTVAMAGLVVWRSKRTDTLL
Test: whole-cell competition vs 125I-rat amylin (Assay Va)

Binder: {C14 diacid-γGlu}-ASELSTAALGRLSAELHELATLPRTETGPESP-NH2 [[N-terminal(C14 diacid-gGlu), des1]mimylin]
IC50: 1.14 nM

B1: [N-terminal(C18 diacid), 32H]mimylin (peptide)
peptide: {C18 diacid}-EASELSTAALGRLSAELHELATLPRTETGPEHP-NH2
SMILES: CC(C)C[C@H](NC(=O)[C@H](C)NC(=O)[C@H](C)NC(=O)[C@@H](NC(=O)[C@H](CO)NC(=O)[C@H](CC(C)C)NC(=O)[C@H](CCC(=O)O)NC(=O)[C@H](CO)NC(=O)[C@H](C)NC(=O)[C@H](CCC(=O)O)NC(=O)CCCCCCCCCCCCCCCCC(=O)O)[C@@H](C)O)C(=O)NCC(=O)N[C@@H](CCCNC(=N)N)C(=O)N[C@@H](CC(C)C)C(=O)N[C@@H](CO)C(=O)N[C@@H](C)C(=O)N[C@@H](CCC(=O)O)C(=O)N[C@@H](CC(C)C)C(=O)N[C@@H](Cc1c[nH]cn1)C(=O)N[C@@H](CCC(=O)O)C(=O)N[C@@H](CC(C)C)C(=O)N[C@@H](C)C(=O)N[C@H](C(=O)N[C@@H](CC(C)C)C(=O)N1CCC[C@H]1C(=O)N[C@@H](CCCNC(=N)N)C(=O)N[C@H](C(=O)N[C@@H](CCC(=O)O)C(=O)N[C@H](C(=O)NCC(=O)N1CCC[C@H]1C(=O)N[C@@H](CCC(=O)O)C(=O)N[C@@H](Cc1c[nH]cn1)C(=O)N1CCC[C@H]1C(N)=O)[C@@H](C)O)[C@@H](C)O)[C@@H](C)O
IC50: 1.26 nM

B3: [N-terminal(C18 diacid), 5H]mimylin (peptide)
peptide: {C18 diacid}-EASEHSTAALGRLSAELHELATLPRTETGPESP-NH2
SMILES: CC(C)C[C@H](NC(=O)[C@H](C)NC(=O)[C@H](C)NC(=O)[C@@H](NC(=O)[C@H](CO)NC(=O)[C@H](Cc1c[nH]cn1)NC(=O)[C@H](CCC(=O)O)NC(=O)[C@H](CO)NC(=O)[C@H](C)NC(=O)[C@H](CCC(=O)O)NC(=O)CCCCCCCCCCCCCCCCC(=O)O)[C@@H](C)O)C(=O)NCC(=O)N[C@@H](CCCNC(=N)N)C(=O)N[C@@H](CC(C)C)C(=O)N[C@@H](CO)C(=O)N[C@@H](C)C(=O)N[C@@H](CCC(=O)O)C(=O)N[C@@H](CC(C)C)C(=O)N[C@@H](Cc1c[nH]cn1)C(=O)N[C@@H](CCC(=O)O)C(=O)N[C@@H](CC(C)C)C(=O)N[C@@H](C)C(=O)N[C@H](C(=O)N[C@@H](CC(C)C)C(=O)N1CCC[C@H]1C(=O)N[C@@H](CCCNC(=N)N)C(=O)N[C@H](C(=O)N[C@@H](CCC(=O)O)C(=O)N[C@H](C(=O)NCC(=O)N1CCC[C@H]1C(=O)N[C@@H](CCC(=O)O)C(=O)N[C@@H](CO)C(=O)N1CCC[C@H]1C(N)=O)[C@@H](C)O)[C@@H](C)O)[C@@H](C)O
IC50: 0.832 nM

Binder: {C18 diacid}-EASELSTAALGRLSAELHELATLPRTETGSGSP-NH2 [[N-terminal(C18 diacid), 30S, 31G]mimylin]
IC50: 0.187 nM

B4: [N-terminal(C18 diacid), 6H]mimylin (peptide)
peptide: {C18 diacid}-EASELHTAALGRLSAELHELATLPRTETGPESP-NH2
SMILES: CC(C)C[C@H](NC(=O)[C@H](C)NC(=O)[C@H](C)NC(=O)[C@@H](NC(=O)[C@H](Cc1c[nH]cn1)NC(=O)[C@H](CC(C)C)NC(=O)[C@H](CCC(=O)O)NC(=O)[C@H](CO)NC(=O)[C@H](C)NC(=O)[C@H](CCC(=O)O)NC(=O)CCCCCCCCCCCCCCCCC(=O)O)[C@@H](C)O)C(=O)NCC(=O)N[C@@H](CCCNC(=N)N)C(=O)N[C@@H](CC(C)C)C(=O)N[C@@H](CO)C(=O)N[C@@H](C)C(=O)N[C@@H](CCC(=O)O)C(=O)N[C@@H](CC(C)C)C(=O)N[C@@H](Cc1c[nH]cn1)C(=O)N[C@@H](CCC(=O)O)C(=O)N[C@@H](CC(C)C)C(=O)N[C@@H](C)C(=O)N[C@H](C(=O)N[C@@H](CC(C)C)C(=O)N1CCC[C@H]1C(=O)N[C@@H](CCCNC(=N)N)C(=O)N[C@H](C(=O)N[C@@H](CCC(=O)O)C(=O)N[C@H](C(=O)NCC(=O)N1CCC[C@H]1C(=O)N[C@@H](CCC(=O)O)C(=O)N[C@@H](CO)C(=O)N1CCC[C@H]1C(N)=O)[C@@H](C)O)[C@@H](C)O)[C@@H](C)O
IC50: 1.31 nM

The next lines start with the values.

IC50: 0.329 nM
B2: [N-terminal(C18 diacid), 18A]mimylin (peptide)
peptide: {C18 diacid}-EASELSTAALGRLSAELAELATLPRTETGPESP-NH2
SMILES: CC(C)C[C@H](NC(=O)[C@H](C)NC(=O)[C@H](C)NC(=O)[C@@H](NC(=O)[C@H](CO)NC(=O)[C@H](CC(C)C)NC(=O)[C@H](CCC(=O)O)NC(=O)[C@H](CO)NC(=O)[C@H](C)NC(=O)[C@H](CCC(=O)O)NC(=O)CCCCCCCCCCCCCCCCC(=O)O)[C@@H](C)O)C(=O)NCC(=O)N[C@@H](CCCNC(=N)N)C(=O)N[C@@H](CC(C)C)C(=O)N[C@@H](CO)C(=O)N[C@@H](C)C(=O)N[C@@H](CCC(=O)O)C(=O)N[C@@H](CC(C)C)C(=O)N[C@@H](C)C(=O)N[C@@H](CCC(=O)O)C(=O)N[C@@H](CC(C)C)C(=O)N[C@@H](C)C(=O)N[C@H](C(=O)N[C@@H](CC(C)C)C(=O)N1CCC[C@H]1C(=O)N[C@@H](CCCNC(=N)N)C(=O)N[C@H](C(=O)N[C@@H](CCC(=O)O)C(=O)N[C@H](C(=O)NCC(=O)N1CCC[C@H]1C(=O)N[C@@H](CCC(=O)O)C(=O)N[C@@H](CO)C(=O)N1CCC[C@H]1C(N)=O)[C@@H](C)O)[C@@H](C)O)[C@@H](C)O

IC50: 0.275 nM
B5: [N-terminal(C18 diacid), 8L]mimylin (peptide)
peptide: {C18 diacid}-EASELSTLALGRLSAELHELATLPRTETGPESP-NH2
SMILES: CC(C)C[C@H](NC(=O)[C@H](C)NC(=O)[C@H](CC(C)C)NC(=O)[C@@H](NC(=O)[C@H](CO)NC(=O)[C@H](CC(C)C)NC(=O)[C@H](CCC(=O)O)NC(=O)[C@H](CO)NC(=O)[C@H](C)NC(=O)[C@H](CCC(=O)O)NC(=O)CCCCCCCCCCCCCCCCC(=O)O)[C@@H](C)O)C(=O)NCC(=O)N[C@@H](CCCNC(=N)N)C(=O)N[C@@H](CC(C)C)C(=O)N[C@@H](CO)C(=O)N[C@@H](C)C(=O)N[C@@H](CCC(=O)O)C(=O)N[C@@H](CC(C)C)C(=O)N[C@@H](Cc1c[nH]cn1)C(=O)N[C@@H](CCC(=O)O)C(=O)N[C@@H](CC(C)C)C(=O)N[C@@H](C)C(=O)N[C@H](C(=O)N[C@@H](CC(C)C)C(=O)N1CCC[C@H]1C(=O)N[C@@H](CCCNC(=N)N)C(=O)N[C@H](C(=O)N[C@@H](CCC(=O)O)C(=O)N[C@H](C(=O)NCC(=O)N1CCC[C@H]1C(=O)N[C@@H](CCC(=O)O)C(=O)N[C@@H](CO)C(=O)N1CCC[C@H]1C(N)=O)[C@@H](C)O)[C@@H](C)O)[C@@H](C)O

IC50: 0.511 nM
B6: [N-terminal(C18 diacid), 20I]mimylin (peptide)
peptide: {C18 diacid}-EASELSTAALGRLSAELHEIATLPRTETGPESP-NH2
SMILES: CC[C@H](C)[C@H](NC(=O)[C@H](CCC(=O)O)NC(=O)[C@H](Cc1c[nH]cn1)NC(=O)[C@H](CC(C)C)NC(=O)[C@H](CCC(=O)O)NC(=O)[C@H](C)NC(=O)[C@H](CO)NC(=O)[C@H](CC(C)C)NC(=O)[C@H](CCCNC(=N)N)NC(=O)CNC(=O)[C@H](CC(C)C)NC(=O)[C@H](C)NC(=O)[C@H](C)NC(=O)[C@@H](NC(=O)[C@H](CO)NC(=O)[C@H](CC(C)C)NC(=O)[C@H](CCC(=O)O)NC(=O)[C@H](CO)NC(=O)[C@H](C)NC(=O)[C@H](CCC(=O)O)NC(=O)CCCCCCCCCCCCCCCCC(=O)O)[C@@H](C)O)C(=O)N[C@@H](C)C(=O)N[C@H](C(=O)N[C@@H](CC(C)C)C(=O)N1CCC[C@H]1C(=O)N[C@@H](CCCNC(=N)N)C(=O)N[C@H](C(=O)N[C@@H](CCC(=O)O)C(=O)N[C@H](C(=O)NCC(=O)N1CCC[C@H]1C(=O)N[C@@H](CCC(=O)O)C(=O)N[C@@H](CO)C(=O)N1CCC[C@H]1C(N)=O)[C@@H](C)O)[C@@H](C)O)[C@@H](C)O

Source: patent US20160272683A1 (Novo Nordisk, published 2016)
